Several values for one entry are separate records, joined by “and”; a condition that tells them apart may be missing. Equal values may be shown once.
How the values were obtained:
Conditions in all cases: both partners purified
[1] = molecular target: T1, Fg domain of human tenascin-C (human, UniProt P24821 1975-2201); experiment: BLI; biotinylated RPTPζ(FN) on streptavidin tips, Fg domain as analyte; room temperature, 150 mM NaCl, 10 mM Na-Hepes pH 7.5, 1 mg/ml BSA, 0.02% Tween-20, 5 mM CaCl2; kinetic analysis, sensorgrams fitted to a 1:1 binding model
T1 construct: C-terminal fibrinogen-like (Fg) domain of human tenascin-C, amino acid residues 1975-2201; also called HTNC(Fg); TNC(Fg); source: E. coli Origami 2(DE3), purified (Ni Sepharose, HRV 3C cleavage, HiTrap Heparin, Superdex 200)
T1 sequence (looked up): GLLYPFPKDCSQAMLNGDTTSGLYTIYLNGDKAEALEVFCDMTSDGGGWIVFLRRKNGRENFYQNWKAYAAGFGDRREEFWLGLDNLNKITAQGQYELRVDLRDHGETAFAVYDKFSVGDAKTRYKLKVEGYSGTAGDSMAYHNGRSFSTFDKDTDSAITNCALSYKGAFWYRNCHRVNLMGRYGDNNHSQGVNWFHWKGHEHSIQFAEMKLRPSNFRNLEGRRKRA

[2] = molecular target: T2, Fg domain of human tenascin-R (human, UniProt Q92752 1129-1358); experiment: as above
T2 construct: C-terminal fibrinogen-like (Fg) domain of human tenascin-R, amino acid residues 1129-1358; also called HTNR(Fg); TNR(Fg); source: E. coli Origami 2(DE3), purified (Ni Sepharose, HRV 3C cleavage, HiTrap Heparin, Superdex 200)
T2 sequence (looked up): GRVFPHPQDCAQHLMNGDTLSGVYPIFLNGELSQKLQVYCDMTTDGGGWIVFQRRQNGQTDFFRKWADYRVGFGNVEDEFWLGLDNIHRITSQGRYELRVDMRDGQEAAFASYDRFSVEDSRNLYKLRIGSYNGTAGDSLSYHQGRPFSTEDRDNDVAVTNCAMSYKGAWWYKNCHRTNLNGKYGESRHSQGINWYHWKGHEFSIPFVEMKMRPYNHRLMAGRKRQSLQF

[3] = molecular target: T1, Fg domain of human tenascin-C; experiment: BLI; biotinylated RPTPζ(FN) on streptavidin tips, Fg domain as analyte; room temperature, 150 mM NaCl, 10 mM Na-Hepes pH 7.5, 1 mg/ml BSA, 0.02% Tween-20, 5 mM CaCl2; dose-response analysis of the signal at equilibrium
[4] = molecular target: T2, Fg domain of human tenascin-R; experiment: as above
[5] = molecular target: T3, CA-FN domains of human RPTPζ (amino acid residues 34-410) fused to human IgG1 Fc, purified (human, UniProt P23471 34-410); experiment: AlphaScreen or HTRF; competition format: biotinylated human TNC(Fg) (5 nM) on streptavidin donor beads, purified RPTPζ(CA-FN)-Fc (0.5 nM) on protein A acceptor beads, untagged Fg domains at varying concentrations; room temperature; one-site competition fit
T3 construct: RPTPζ, human, carbonic anhydrase-like and FN domains (CA-FN), residues 34-410; also called RPTPζ(CA-FN); IgG Fc fusion of RPTPζ(CA-FN)

[6] = molecular target: T4, CA-FN domains of human RPTPζ fused to human IgG1 Fc (human, UniProt P23471 34-410); experiment: AlphaScreen or HTRF; competition: RPTPζ(CA-FN)-Fc (0.5 nM) on protein A acceptor beads, biotinylated TNC(Fg) (5 nM) on streptavidin donor beads, untagged Fg domain as inhibitor in a dilution series; room temperature; one-site competition fit
T4 construct: carbonic anhydrase-like and fibronectin type III (CA-FN) domains of human RPTPζ, amino acid residues 34-410; also called RPTPζ(CA-FN)-Fc; RPTPζ(CA-FN)

[7] = molecular target: T5, Fg domain of human tenascin-C (amino acid residues 1975-2201) (human, UniProt P24821 1975-2201); experiment: BLI; biotinylated FN domain of RPTPζ (250 nM) immobilised on streptavidin tips; Fg domain in solution; room temperature; 150 mM NaCl, 10 mM Na-Hepes pH 7.5, 1 mg/ml BSA, 0.02% Tween-20, 5 mM EDTA; KD from the signal at equilibrium
T5 construct: tenascin-C (TNC), human, fibrinogen-like (Fg) domain, residues 1975-2201; also called TNC(Fg); WT TNC; source: E. coli Origami 2(DE3), purified (Ni Sepharose, 3C cleavage, HiTrap Heparin, Superdex 200)
T5 sequence (looked up): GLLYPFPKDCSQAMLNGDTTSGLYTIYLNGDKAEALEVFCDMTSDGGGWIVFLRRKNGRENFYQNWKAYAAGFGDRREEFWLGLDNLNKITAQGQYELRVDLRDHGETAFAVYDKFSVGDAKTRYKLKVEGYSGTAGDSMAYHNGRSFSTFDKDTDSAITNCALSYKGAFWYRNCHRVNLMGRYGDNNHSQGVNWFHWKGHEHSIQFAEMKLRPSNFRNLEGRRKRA

[8] = molecular target: T6, Fg domain of human tenascin-R (amino acid residues 1129-1358) (human, UniProt Q92752 1129-1358); experiment: as above
T6 construct: tenascin-R (TNR), human, fibrinogen-like (Fg) domain, residues 1129-1358; also called TNR(Fg); source: E. coli Origami 2(DE3), purified (Ni Sepharose, 3C cleavage, HiTrap Heparin, Superdex 200)
T6 sequence (looked up): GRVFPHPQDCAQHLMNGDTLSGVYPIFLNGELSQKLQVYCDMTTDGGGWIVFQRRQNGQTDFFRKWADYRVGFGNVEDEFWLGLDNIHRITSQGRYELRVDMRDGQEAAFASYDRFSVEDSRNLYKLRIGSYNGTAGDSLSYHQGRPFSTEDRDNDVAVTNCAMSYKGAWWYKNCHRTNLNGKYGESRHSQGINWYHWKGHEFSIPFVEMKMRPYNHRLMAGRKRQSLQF

[9] = molecular target: T5, Fg domain of human tenascin-C (amino …); experiment: BLI; biotinylated FN domain of RPTPζ (250 nM) immobilised on streptavidin tips; Fg domain in solution; room temperature; 150 mM NaCl, 10 mM Na-Hepes pH 7.5, 1 mg/ml BSA, 0.02% Tween-20, 5 mM CaCl2; KD from the signal at equilibrium
[10] = molecular target: T6, Fg domain of human tenascin-R (amino …); experiment: as above

B1: biotinylated FN domain of human RPTPζ (domain or fragment)
chain: not shown
modifications: biotin (EZ-Link NHS-PEG4-Biotin, 1:1 molar ratio)
- Kd [1]: 150 nM and 170 nM and 189 nM and 173 nM
- Kd [2]: 79 nM and 80 nM and 78 nM
- Kd [3]: 242 nM and 191 nM and 127 nM and 187 nM
- Kd [4]: 114 nM and 117 nM and 113 nM and 104 nM

B2: biotinylated Fg domain of human tenascin-C with a cysteine residue added at the N-terminus (domain or fragment)
chain: CGLLYPFPKDCSQAMLNGDTTSGLYTIYLNGDKAEALEVFCDMTSDGGGWIVFLRRKNGRENFYQNWKAYAAGFGDRREEFWLGLDNLNKITAQGQYELRVDLRDHGETAFAVYDKFSVGDAKTRYKLKVEGYSGTAGDSMAYHNGRSFSTFDKDTDSAITNCALSYKGAFWYRNCHRVNLMGRYGDNNHSQGVNWFHWKGHEHSIQFAEMKLRPSNFRNLEGRRKRA
modifications: biotin (EZ-Link Maleimide-PEG2-Biotin) on the added N-terminal cysteine
notes: cysteine residue added at the N-terminus of the Fg domain by site-directed mutagenesis; tenascin-C (TNC), human, fibrinogen-like (Fg) domain, residues 1975-2201; also called biotinylated human TNC(Fg); biotinylated TNC(Fg); source: E. coli Origami 2(DE3), purified, biotinylated, then gel filtration
- binding result [5]: binds

B3: biotinylated Fg domain of human tenascin-C with an added N-terminal cysteine (domain or fragment)
chain: CGLLYPFPKDCSQAMLNGDTTSGLYTIYLNGDKAEALEVFCDMTSDGGGWIVFLRRKNGRENFYQNWKAYAAGFGDRREEFWLGLDNLNKITAQGQYELRVDLRDHGETAFAVYDKFSVGDAKTRYKLKVEGYSGTAGDSMAYHNGRSFSTFDKDTDSAITNCALSYKGAFWYRNCHRVNLMGRYGDNNHSQGVNWFHWKGHEHSIQFAEMKLRPSNFRNLEGRRKRA
modifications: biotin (EZ-Link Maleimide-PEG2-Biotin) on the cysteine added at the N-terminus
notes: a cysteine residue added at the N-terminus of the Fg domain by site-directed mutagenesis; C-terminal fibrinogen-like (Fg) domain of human tenascin-C, amino acid residues 1975-2201; also called biotin-HTNC(Fg); biotinylated human TNC(Fg); source: E. coli Origami 2(DE3), purified, biotinylated, then gel filtration
- binding result [6]: binds

B4: biotinylated FN domain of human RPTPζ (domain or fragment)
chain: not shown
modifications: biotin (EZ-Link NHS-PEG4-Biotin, 1:1 molar ratio)
- Kd [7]: 9900 nM
- Kd [8]: 712 nM
- Kd [9]: 187 nM
- koff [9]: > 0.01 s⁻¹
- Kd [10]: 112 nM
- koff [10]: > 0.01 s⁻¹
